# Target: NbWRKY40 (GST fusion implied by GST control) (Nicotiana benthamiana, UniProt A0A7T1TE48 1-255)
# Assay: EMSA; LightShift Chemiluminescent EMSA Kit (Thermo Scientific), manufacturer's instructions; buffer, salt, pH and temperature not stated
# Settings: protein: recombinant; label: biotin (end label); blunt
# NbWRKY40 (GST fusion implied by GST control), sequence (A0A7T1TE48 entry or part of it): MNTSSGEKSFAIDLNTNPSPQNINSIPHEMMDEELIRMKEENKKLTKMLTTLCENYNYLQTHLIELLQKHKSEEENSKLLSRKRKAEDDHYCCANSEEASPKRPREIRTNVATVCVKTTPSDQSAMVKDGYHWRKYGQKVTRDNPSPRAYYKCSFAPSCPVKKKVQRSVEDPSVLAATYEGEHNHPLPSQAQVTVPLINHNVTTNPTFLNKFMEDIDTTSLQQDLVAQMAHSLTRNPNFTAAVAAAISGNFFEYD
binder,measurement,value
NbICS1 promoter W-box fragment (84 bp) (dsDNA) DNA 1: TAGTACAGAATATGAAGAAAGCTTTGCATATGGTGTTTATTGACCTAGAGAAAGTGTACATCAAGGTCCCTAGGGATGTCCTTT DNA 2: AAAGGACATCCCTAGGGACCTTGATGTACACTTTCTCTAGGTCAATAAACACCATATGCAAAGCTTTCTTCATATTCTGTACTA,binding result,binds

# From publication PMC7857026, “NbWRKY40 Positively Regulates the Response of Nicotiana benthamiana to Tomato Mosaic Virus via Salicylic Acid Signaling”
